Patent publication US6818617
Like-named read-outs stand apart in the source and are kept apart here.

Tests used:
[1] = molecular target: integrin α4β1 on Jurkat cells (UniProt P13612)
integrin α4β7 [2] = molecular target: integrin α4β7 (UniProt P13612)
integrin αIIbβ3 (human) [3] = molecular target: integrin αIIbβ3 (human) (UniProt P08514); assay: cell-based or functional assay
[4] = molecular target: integrin α4β1 on Jurkat cells (UniProt P13612); assay: inhibition of cell adhesion: Jurkat cells to CS-1
[5] = molecular target: integrin α6β1 on K562 cells transfected with α6 (UniProt P23229); assay: inhibition of cell adhesion: K562 (α6+) cells to laminin
integrin α4β7 [6] = molecular target: integrin α4β7 (UniProt P13612); assay: inhibition of cell adhesion: RPMI 8866 cells to MadCAM-1
[7] = molecular target: integrin α4β1 on Jurkat cells (UniProt P13612); assay: inhibition of cell adhesion: Jurkat cells to immobilized VCAM-1
integrin αIIbβ3 (human) [8] = molecular target: integrin αIIbβ3 (human) (UniProt P08514); assay: inhibition of cell adhesion: A5 (CHO αIIbβ3+) cells to immobilized fibrinogen
integrin αvβ3 (human) = integrin αvβ3 (human) (UniProt P06756); assay: inhibition of cell adhesion: VNRC3 (CHO αvβ3+) cells to immobilized vitronectin
Sequence of integrin αvβ3 (human) (P06756 31-1048, chain 1 of 2): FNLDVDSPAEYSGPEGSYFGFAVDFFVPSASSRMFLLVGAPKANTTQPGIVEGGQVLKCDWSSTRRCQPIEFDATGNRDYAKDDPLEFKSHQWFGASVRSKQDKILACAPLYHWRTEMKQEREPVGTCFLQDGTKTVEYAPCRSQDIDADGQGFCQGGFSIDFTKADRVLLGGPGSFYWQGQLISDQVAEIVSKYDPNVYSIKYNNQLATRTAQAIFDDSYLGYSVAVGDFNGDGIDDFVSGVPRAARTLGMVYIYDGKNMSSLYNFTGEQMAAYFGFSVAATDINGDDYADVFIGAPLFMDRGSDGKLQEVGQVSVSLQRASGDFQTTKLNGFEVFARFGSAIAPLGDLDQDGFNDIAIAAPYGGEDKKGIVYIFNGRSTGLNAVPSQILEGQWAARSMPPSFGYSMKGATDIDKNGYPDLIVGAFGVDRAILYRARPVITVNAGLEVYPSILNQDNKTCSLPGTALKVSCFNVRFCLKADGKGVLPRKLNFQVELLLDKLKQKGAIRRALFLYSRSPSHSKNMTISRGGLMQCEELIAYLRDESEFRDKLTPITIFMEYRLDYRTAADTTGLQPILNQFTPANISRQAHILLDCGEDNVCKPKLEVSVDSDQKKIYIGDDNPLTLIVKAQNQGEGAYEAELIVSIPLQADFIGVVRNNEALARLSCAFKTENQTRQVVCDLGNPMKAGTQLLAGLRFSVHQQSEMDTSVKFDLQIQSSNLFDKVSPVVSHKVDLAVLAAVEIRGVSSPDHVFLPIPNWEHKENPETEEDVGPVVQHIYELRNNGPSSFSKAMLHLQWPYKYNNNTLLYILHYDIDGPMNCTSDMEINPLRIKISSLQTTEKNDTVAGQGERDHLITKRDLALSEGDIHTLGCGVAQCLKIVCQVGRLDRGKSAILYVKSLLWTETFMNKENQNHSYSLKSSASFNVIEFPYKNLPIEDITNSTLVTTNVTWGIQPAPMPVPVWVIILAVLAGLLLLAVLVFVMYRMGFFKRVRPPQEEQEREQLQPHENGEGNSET
Sequence of integrin αvβ3 (human) (P05106 27-788, chain 2 of 2, further chain): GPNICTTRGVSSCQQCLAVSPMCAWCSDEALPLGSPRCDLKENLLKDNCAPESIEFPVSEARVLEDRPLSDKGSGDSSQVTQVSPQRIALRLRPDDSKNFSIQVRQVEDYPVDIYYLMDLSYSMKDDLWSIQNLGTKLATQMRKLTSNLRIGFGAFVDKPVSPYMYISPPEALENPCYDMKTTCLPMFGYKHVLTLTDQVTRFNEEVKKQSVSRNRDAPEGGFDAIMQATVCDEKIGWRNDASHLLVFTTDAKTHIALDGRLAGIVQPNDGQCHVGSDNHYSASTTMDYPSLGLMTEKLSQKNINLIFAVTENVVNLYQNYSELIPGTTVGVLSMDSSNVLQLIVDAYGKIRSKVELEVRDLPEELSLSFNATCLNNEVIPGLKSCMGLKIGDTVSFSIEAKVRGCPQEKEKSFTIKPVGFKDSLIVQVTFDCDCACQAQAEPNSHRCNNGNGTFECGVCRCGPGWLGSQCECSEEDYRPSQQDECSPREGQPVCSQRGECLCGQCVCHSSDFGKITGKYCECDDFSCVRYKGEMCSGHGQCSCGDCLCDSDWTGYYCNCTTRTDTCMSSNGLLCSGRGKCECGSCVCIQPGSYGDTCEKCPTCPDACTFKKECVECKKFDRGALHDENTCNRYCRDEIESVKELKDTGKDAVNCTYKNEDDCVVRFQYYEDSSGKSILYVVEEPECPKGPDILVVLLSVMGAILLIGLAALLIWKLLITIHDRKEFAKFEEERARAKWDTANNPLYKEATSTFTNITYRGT

Sequence of integrin α6β1 on K562 cells transfected with α6 (P23229 24-1130, chain 1 of 2): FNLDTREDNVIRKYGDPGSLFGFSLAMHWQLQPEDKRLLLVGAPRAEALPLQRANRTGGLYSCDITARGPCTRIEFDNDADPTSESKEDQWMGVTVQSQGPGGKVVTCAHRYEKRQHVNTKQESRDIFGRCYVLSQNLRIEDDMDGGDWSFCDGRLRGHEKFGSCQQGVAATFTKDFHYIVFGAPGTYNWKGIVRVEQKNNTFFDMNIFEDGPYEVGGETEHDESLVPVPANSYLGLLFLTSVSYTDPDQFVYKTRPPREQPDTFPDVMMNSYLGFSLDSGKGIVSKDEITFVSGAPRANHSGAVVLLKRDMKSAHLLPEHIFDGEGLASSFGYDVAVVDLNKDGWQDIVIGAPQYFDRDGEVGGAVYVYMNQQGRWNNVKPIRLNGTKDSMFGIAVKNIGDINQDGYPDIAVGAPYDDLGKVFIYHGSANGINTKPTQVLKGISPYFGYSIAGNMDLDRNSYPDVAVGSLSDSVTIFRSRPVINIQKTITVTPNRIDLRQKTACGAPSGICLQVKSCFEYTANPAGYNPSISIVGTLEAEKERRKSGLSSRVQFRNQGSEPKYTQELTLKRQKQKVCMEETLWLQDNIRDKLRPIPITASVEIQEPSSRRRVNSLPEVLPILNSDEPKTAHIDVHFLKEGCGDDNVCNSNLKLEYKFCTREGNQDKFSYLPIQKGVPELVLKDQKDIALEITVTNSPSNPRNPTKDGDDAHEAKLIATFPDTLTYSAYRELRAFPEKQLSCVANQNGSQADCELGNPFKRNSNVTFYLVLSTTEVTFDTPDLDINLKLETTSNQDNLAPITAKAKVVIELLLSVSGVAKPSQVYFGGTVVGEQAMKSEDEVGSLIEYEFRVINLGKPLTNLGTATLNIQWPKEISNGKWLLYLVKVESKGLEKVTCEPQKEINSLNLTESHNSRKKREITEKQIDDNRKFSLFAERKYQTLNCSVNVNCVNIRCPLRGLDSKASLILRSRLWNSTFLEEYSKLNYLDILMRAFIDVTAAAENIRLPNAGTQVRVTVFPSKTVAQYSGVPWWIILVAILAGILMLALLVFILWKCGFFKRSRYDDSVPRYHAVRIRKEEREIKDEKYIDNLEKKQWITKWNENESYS
Sequence of integrin α6β1 on K562 cells transfected with α6 (P05556 21-798, chain 2 of 2, further chain): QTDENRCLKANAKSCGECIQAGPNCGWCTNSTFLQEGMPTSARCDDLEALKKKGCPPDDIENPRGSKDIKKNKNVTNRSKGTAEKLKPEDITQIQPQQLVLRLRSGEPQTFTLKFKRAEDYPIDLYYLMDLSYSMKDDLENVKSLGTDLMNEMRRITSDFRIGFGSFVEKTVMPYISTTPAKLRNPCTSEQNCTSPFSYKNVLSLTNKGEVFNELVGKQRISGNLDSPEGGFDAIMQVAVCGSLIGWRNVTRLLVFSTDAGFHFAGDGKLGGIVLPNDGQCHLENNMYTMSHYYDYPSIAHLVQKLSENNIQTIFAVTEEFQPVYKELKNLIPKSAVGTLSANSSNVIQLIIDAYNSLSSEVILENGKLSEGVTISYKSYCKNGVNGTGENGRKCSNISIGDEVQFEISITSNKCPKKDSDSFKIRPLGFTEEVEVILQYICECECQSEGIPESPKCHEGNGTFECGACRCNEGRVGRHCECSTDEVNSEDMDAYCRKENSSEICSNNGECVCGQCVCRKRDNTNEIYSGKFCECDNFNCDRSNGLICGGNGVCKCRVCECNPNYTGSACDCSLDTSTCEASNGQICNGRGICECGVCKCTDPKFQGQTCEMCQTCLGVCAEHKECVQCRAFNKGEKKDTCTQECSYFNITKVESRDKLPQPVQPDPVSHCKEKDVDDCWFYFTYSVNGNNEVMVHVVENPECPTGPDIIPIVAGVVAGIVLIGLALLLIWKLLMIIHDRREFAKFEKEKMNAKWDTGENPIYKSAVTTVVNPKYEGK

Substance | IC50 [1] | IC50 (integrin α4β7 [2]) | IC50, ADP PA (ADP-induced platelet aggregation in platelet rich plasma) (integrin αIIbβ3 (human) [3]) | IC50 [4] | IC50 [5] | IC50 (integrin α4β7 [6]) | IC50 [7] | IC50 (integrin αIIbβ3 (human) [8]) | IC50 (integrin αvβ3 (human))
EC-3 protein, heterodimeric disintegrin from Echis carinatus suchoreki venom (from UniProt P81630 1-67; P81631 1-67) | 28 nM | 6 nM | 1000 nM | 100 nM | > 10000 nM | 5 nM | 25 nM | 500 nM | > 10000 nM
Echistatin (from UniProt P0C6R5 4-52) | – | – | 130 nM | – | > 10000 nM | > 10000 nM | > 10000 nM | 50 nM | 50 nM
